# In the DeepSol protein solubility set:
# Assay: soluble on expression in E. coli; label from the status in PepcDB or PDB records
row,Sequence,soluble on expression in E. coli
1,AHHHHHHGSRERGVAFFSGGKDGLYALYLAEKEGIEVPYLLTLKTSIGLSPHWENLSSLKALAENMGKKLLTFDMKYGSKALAEFISSLDVDYIIAGDVFLEDHLKWINLLAEKAGIKSFEPLWGKNTLELAKEMLNAGFKYSIIAVDKNKLEKTWLGYTFSSTRDIEIFIYENPTIDPLGEGGEFHTITLSSPLFKDEFTLEKISVEESERYWWMRFRVVGNDIKNVRVKGHNSRKDG,not soluble
2,GYTLWNDQIVKDEEVKIDKEDRGYQFGDGVYEVVKVYNGEMFTVNEHIDRLYASAEKIRITIPYTKDKFHQLLHELVEKNELNTGHIYFQVTRGTSPRAHQFPENTVKPVIIGYTKENPRPLENLEKGVKATFVEDIRWLRCDIKSLNLLGAVLAKQEAHEKGCYEAILHRNNTVTEGSSSNVFGIKDGILYTHPANNMIAKGITRDVVIACANEINMPVKEIPFTTHEALKMDELFVTSTTSEITPVIEIDGKLIRDGKVGEWTRKLQKQFETKIPKPLHI,soluble
3,SNAEQVRQAGIDDIGGILELIHPLEEQGILVRRSREQLEQEIGKFTIIEKDGLIIGCAALYPYSEERKAEMACVAIHPDYRDGNRGLLLLNYMKHRSKSENINQIFVLTTHSLHWFREQGFYEVGVDYLPGAKQGLYNFQRKSKILALDL,soluble
4,MGSDKIHHHHHHLITVQDLELRAGARLLMDQVSFRIDKGDKIGLVGRNGAGKTTLTRVLAGEGLPAAGKVTRSGEIGYLPQDPRTPDMEQLARDRILSVRGLDIAVGKLRLAHEEMASEDAAVQRKAMNRYDRLESEFLAAGGYAAEAEAAAICSNLALPDRLLNQPLKTLSGGQRRRVELARILYSDAETMLLDEPTNHLDADSIAWLRDFLKNHQGGLIVISHDTELLEATVNKVFLLDANRAQIDFYNMDWKRYLQQRETDERARKRERANAEKKAQVLFDQANKMRAKATKAVAAQNMAKRAERLLSGLEAVRENDRVAALRFPDPSPCGKTPLTADGLSKSYGSLEIFTDVDLAIDRGSKVVILGLNGAGKTTLLRMLAGVDKPDTGEVIAGHGLKVGYYAQEHETLDVDRTVLQNMRSSAPDMNDSEVRGILGSFLFSGDDVDKPAGVLSGGEKTRLALATIVASSANVLLLDEPTNNLDPASRTEILGALRNYTGAVVLVSHDEGAVEALNPERVVLLPDGVEDHWNEDYLDLITLA,not soluble
5,ERSAVQLSLSSRLQLTLYQYKTCPFCSKVRAFLDFHALPYQVVEVNPVLRAEIKFSSYRKVPILVAQEGESSQQLNDSSVIISALKTYLVSGQPLEEIITYYPAMKAVNDQGKEVTEFGNKYWLMLNEKEAQQVYSGKEARTEEMKWRQWADDWLVHLISPNVYRTPTEALASFDYIVREGKFGAVEGAVAKYMGAAAMYLISKRLKSRHRLQDNVREDLYEAADKWVAAVGKDRPFMGGQKPNLADLAVYGVLRVMEGLDAFDDLMQHTHIQPWYLRVERAITEASPAH,soluble
6,MGSDKIHHHHHHMTQDAQCTRRTDWIPLAREVLDIEIEGIAAMRDRLNGGFVDALTLMARCTGRVVITGLGKSGLVGRKLAATLSSTGTPAFFLHPVEGAHGDMGMLRSDDVIIAISNSGETDELNAILPALRSLGASLIAMTGGLESTLAKSADVVLDTGVRREACPLNLAPTASTTAVLAMGDALAVCLIHWKSFTENDFLRFHPGGSLGHRLSMRVESLMHTENLPVVRETVRTGEALRVLDEGRLGTVLVTDGQGRLSGILTDGDVRRMVCREAGVETASPVANVMVRSPLTARKEFSVAQLIDMMEERAITVLPITGDDGLLLGVVHLHDLLGKGGVKFSR,not soluble
7,MTVESVNPETRAPAAPGAPELREPPVAGGGVPLLGHGWRLARDPLAFMSQLRDHGDVVRIKLGPKTVYAVTNPELTGALALNPDYHIAGPLWESLEGLLGKEGVATANGPLHRRQRRTIQPAFRLDAIPAYGPIMEEEAHALTERWQPGKTVDATSESFRVAVRVAARCLLRGQYMDERAERLCVALATVFRGMYRRMVVPLGPLYRLPLPANRRFNDALADLHLLVDEIIAERRASGQKPDDLLTALLEAKDDNGDPIGEQEIHDQVVAILTPGSETIASTIMWLLQALADHPEHADRIRDEVEAVTGGRPVAFEDVRKLRHTGNVIVEAMRLRPAVWVLTRRAVAESELGGYRIPAGADIIYSPYAIQRDPKSYDDNLEFDPDRWLPERAANVPKYAMKPFSAGKRKCPSDHFSMAQLTLITAALATKYRFEQVAGSNDAVRVGITLRPHDLLVRPVARHHHHHH,soluble
